Assay [1] addresses T1, mouse FcRn (Sino Biological Cat. No. CT029-M08H) (mouse, UniProt Q61559 22-297; P01887 21-119).
T1 construct: Bought protein, captured on an anti-histidine chip
T1 sequence (looked up): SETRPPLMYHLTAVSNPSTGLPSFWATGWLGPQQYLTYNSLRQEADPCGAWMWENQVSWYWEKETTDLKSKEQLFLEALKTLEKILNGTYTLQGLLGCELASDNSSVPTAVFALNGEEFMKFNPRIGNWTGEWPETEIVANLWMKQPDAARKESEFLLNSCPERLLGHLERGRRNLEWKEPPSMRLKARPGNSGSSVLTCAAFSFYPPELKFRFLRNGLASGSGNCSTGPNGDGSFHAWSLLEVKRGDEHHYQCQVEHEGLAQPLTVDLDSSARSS
T1 sequence (b2m, looked up): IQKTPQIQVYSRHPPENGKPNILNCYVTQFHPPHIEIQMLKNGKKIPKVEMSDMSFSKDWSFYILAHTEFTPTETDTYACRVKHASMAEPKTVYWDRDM
Description: SPR, FcRn captured via anti-His, pH 6.0.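 Also: SPR binding signal relative to the reference cell, corrected by subtracting the response of a blank sample of running buffer alone.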

Assay [2] addresses T2, human FcRn (R&D Systems Cat. No. 8639-Fc) (human, UniProt P55899 24-297; P61769 21-119). Description: SPR, FcRn captured via anti-His, pH 6.0.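 Also: SPR binding signal relative to the reference cell, corrected by subtracting the response of a blank sample of running buffer alone.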
Assay [3] deals with T3, cynomolgus monkey FcRn (Sino Biological Cat. No. CT031-C08H) (cynomolgus monkey, UniProt Q8SPV9 24-297; Q8SPW0 21-119).
T3 construct: Bought protein, captured on an anti-histidine chip; also called cynomolgus FcRn
As to the kind of experiment: SPR, FcRn captured via anti-His, pH 6.0.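 Also: SPR binding signal relative to the reference cell, corrected by subtracting the response of a blank sample of running buffer alone.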 In general terms: SPR reads the build-up and loss of mass on a sensor chip optically.

The target of assay [4] is T4, C-terminus biotinylated human FcRn attached to Streptavidin-SmBiT (FcRn-SAv-SmBiT) (human, UniProt P55899 24-297; P61769 21-119, limits assumed, C-terminus biotinylated (AviTag), attached to Streptavidin-SmBiT).
T4 construct: Kit reagent; also called hFcRn-AviTag
Description: NanoBiT FcRn competition immunoassay, competitor Tracer-LgBiT human IgG, pH 6.0.

Assay [5] deals with T2, human FcRn (R&D Systems Cat. No. …). As to the kind of experiment: SPR, FcRn captured; Expt 3.
The target in assay [6] is T5, Human C1q (Sigma Cat. No. 20476), HRP-labelled (human, UniProt P02745 23-245; P02746 28-253; P02747 29-245).
T5 construct: Coupled to horse-radish peroxidase with Lightning-Link kit; also called HRP-labelled C1q
Description: ELISA, antibody coated, HRP-C1q; Expt 2, buffer alone 0.091. For orientation: In an ELISA, binding on a coated surface is turned into a signal by an enzyme label.

Assay [7] concerns the target T2, human FcRn (R&D Systems Cat. No. …). As to the kind of experiment: SPR, FcRn captured; Mean.
For assay [8] the target is unchanged. Description: SPR, FcRn captured; Expt 1.
Assay [9] shares this target. As to the kind of experiment: SPR, FcRn captured; Expt 2.
Assay [10] deals with T5, Human C1q (Sigma Cat. No. 20476), …. As to the kind of experiment: ELISA, antibody coated, HRP-C1q; Expt 1, buffer alone 0.061.

Numbering of substitutions follows the chain as printed. Numbers in names are those of the source.

B1: anti-CD20 (rituximab) human IgG1 G236R (antibody)
heavy: not shown
light: QIVLSQSPAILSASPGEKVTMTCRASSSVSYIHWFQQKPGSSPKPWIYATSNLASGVPVRFSGSGSGTSYSLTISRVEAEDAATYYCQQWTSNPPTFGGGTKLEIKRTVAAPSVFIFPPSDEQLKSGTASVVCLLNNFYPREAKVQWKVDNALQSGNSQESVTEQDSKDSTYSLSSTLTLSKADYEKHKVYACEVTHQGLSSPVTKSFNRGEC
notes: EU numbering; also called 2-81; copies: 2 + 2
For the molecule B1, the entries for the “Corrected response (RU)” value in assay [1], in assay [2] and in assay [3] were 173 RU, 570 RU and 1290 RU, respectively.

B2: anti-CD20 (rituximab variable regions) human IgG2 L234Q/L235S (antibody)
heavy: QVQLQQPGAELVKPGASVKMSCKASGYTFTSYNMHWVKQTPGRGLEWIGAIYPGNGDTSYNQKFKGKATLTADKSSSTAYMQLSSLTSEDSAVYYCARSTYYGGDWYFNVWGAGTTVTVSSASTKGPSVFPLAPCSRSTSESTAALGCLVKDYFPEPVTVSWNSGALTSGVHTFPAVLQSSGLYSLSSVVTVPSSNFGTQTYTCNVDHKPSNTKVDKTVERKCCVECPPCPAPPQSGPSVFLFPPKPKDTLMISRTPEVTCVVVDVSHEDPEVQFNWYVDGVEVHNAKTKPREEQFNSTFRVVSVLTVVHQDWLNGKEYKCKVSNKGLPAPIEKTISKTKGQPREPQVYTLPPSREEMTKNQVSLTCLVKGFYPSDIAVEWESNGQPENNYKTTPPMLDSDGSFFLYSKLTVDKSRWQQGNVFSCSVMHEALHNHYTQKSLSLSPGK
light: B1 light
notes: also called 11.144; copies: 2 + 2
In the case of B2, the “Mean binding activity (% of wild-type reference)” value in [4] is 143 % of wild-type reference.

B3: anti-CD20 (rituximab) human IgG1 L234Q/L235S, sample 2-82 (antibody)
heavy: not shown
light: B1 light
notes: EU numbering; copies: 2 + 2
As for B3, the figures for the “Corrected response (RU)” value in assay [1], in assay [2] and in [3] were 142 RU, 509 RU and 1170 RU, respectively.

B4: anti-CD20 (rituximab) human IgG1 L234D/L235S/G236R (antibody)
heavy: QVQLQQPGAELVKPGASVKMSCKASGYTFTSYNMHWVKQTPGRGLEWIGAIYPGNGDTSYNQKFKGKATLTADKSSSTAYMQLSSLTSEDSAVYYCARSTYYGGDWYFNVWGAGTTVTVSSASTKGPSVFPLAPSSKSTSGGTAALGCLVKDYFPEPVTVSWNSGALTSGVHTFPAVLQSSGLYSLSSVVTVPSSSLGTQTYICNVNHKPSNTKVDKKVEPKSCDKTHTCPPCPAPEDSRGPSVFLFPPKPKDTLMISRTPEVTCVVVDVSHEDPEVKFNWYVDGVEVHNAKTKPREEQYNSTYRVVSVLTVLHQDWLNGKEYKCKVSNKALPAPIEKTISKAKGQPREPQVYTLPPSRDELTKNQVSLTCLVKGFYPSDIAVEWESNGQPENNYKTTPPVLDSDGSFFLYSKLTVDKSRWQQGNVFSCSVMHEALHNHYTQKSLSLSPGK
light: B1 light
notes: EU numbering; also called 2-10; 1-29; copies: 2 + 2
As to B4, the “Corrected response (RU)” value in assay [1] is 145 RU; in assay [2], 507 RU; in assay [3] it was 1200 RU.

B5: anti-CD20 (rituximab) human IgG1 G236R/L328R (antibody)
heavy: not shown
light: B1 light
notes: EU numbering; also called 2-68; copies: 2 + 2
Take B5: the entries for the “Corrected response (RU)” value in assay [1], in [2] and in assay [3] were 206 RU, 567 RU and 1290 RU, respectively.

B6: anti-CD20 (rituximab) human IgG1 L234Q/G236R (antibody)
heavy: not shown
light: B1 light
notes: EU numbering; also called 2-30; copies: 2 + 2
As to B6, the “Corrected and normalised response (% of wild-type reference)” value in [5] is 99 % of wild-type reference; in assay [7] it was 99.3 % of wild-type reference; in assay [8], 100 % of wild-type reference; in assay [9], 99 % of wild-type reference. For the same molecule, the “Mean Absorbance” value in assay [6] was 0.089 absorbance (450 nm).

B7: anti-CD20 (rituximab) human IgG1 L234Q/L235R/G236R (antibody)
heavy: B4 heavy with D238Q, S239R
light: B1 light
notes: EU numbering; also called 2-32; copies: 2 + 2
As to B7, the “Corrected response (RU)” value in assay [1] was 180 RU; in assay [2], 533 RU; in [3], 1240 RU.

B8: anti-CD20 (rituximab) human IgG1 L234Q/L235D/G236R (antibody)
heavy: B4 heavy with D238Q, S239D
light: B1 light
notes: EU numbering; also called 2-28; copies: 2 + 2
For B8, the figures for the “Corrected response (RU)” value in assay [1], in [2] and in [3] were 170 RU, 490 RU and 1160 RU, respectively.

B9: anti-CD20 (rituximab) human IgG1 L235A/G236R (antibody)
heavy: not shown
light: B1 light
notes: EU numbering; also called 2-79; copies: 2 + 2
With B9, the entries for the “Corrected response (RU)” value in [1], in assay [2] and in [3] were 168 RU, 540 RU and 1240 RU, respectively.

B10: anti-CD20 (rituximab) human IgG1 L234R/L235R/G236R (antibody)
heavy: B4 heavy with D238R, S239R
light: B1 light
notes: EU numbering; also called 2-43; copies: 2 + 2
In the case of B10, in [10], the “Mean Absorbance” value is 0.029 absorbance (450 nm). In addition, the “Corrected and normalised response (% of wild-type reference)” value in [5] was 108 % of wild-type reference; in assay [7] it was 108 % of wild-type reference; in [8] it was 106 % of wild-type reference; in [9], 108 % of wild-type reference. In addition, the “Corrected response (RU)” value in assay [1] stood at 181 RU; in assay [2], 570 RU; in assay [3], 1300 RU.

B11: anti-CD20 (rituximab) human IgG1 L235G/G236R (antibody)
heavy: not shown
light: B1 light
notes: EU numbering; also called 2-83; copies: 2 + 2
As to B11, the “Corrected response (RU)” value in assay [1] turned out to be 146 RU; in assay [2] it was 547 RU; in [3] it was 1250 RU.

B12: anti-CD20 (rituximab) human IgG1 L234Q/L235A/G236R (antibody)
heavy: not shown
light: B1 light
notes: EU numbering; also called 2-27; copies: 2 + 2
In the case of B12, in [10], the “Mean Absorbance” value was 0.048 absorbance (450 nm). The “Corrected and normalised response (% of wild-type reference)” value in assay [5] is 92.8 % of wild-type reference; in assay [7], 93.5 % of wild-type reference; in assay [8], 94.5 % of wild-type reference; in [9], 93.4 % of wild-type reference. The “Corrected response (RU)” value in [1] was 154 RU; in assay [2] it was 513 RU; in assay [3], 1220 RU.

B13: anti-CD20 (rituximab) human IgG1 L235S/G236R (antibody)
heavy: not shown
light: B1 light
notes: EU numbering; also called 2-80; copies: 2 + 2
In the case of B13, the entries for the “Corrected response (RU)” value in assay [1], in assay [2] and in [3] were 189 RU, 530 RU and 1220 RU, respectively.
